We go through three molecules from article PMC3854871, “Knockdown of Asparagine Synthetase A Renders Trypanosoma brucei Auxotrophic to Asparagine” (PLoS Neglected Tropical Diseases, 2013).

Data set [1] has as its target T1, TcAS-A (Trypanosoma cruzi, UniProt Q4CRM4).
T1 construct: gene Tc00.1047053503625.10; full ORF in pET28a(+), 6-His-tagged, expressed in E. coli BL21DE3, Ni purified; predicted dimer (homology model)
T1 sequence (Q4CRM4 1-348): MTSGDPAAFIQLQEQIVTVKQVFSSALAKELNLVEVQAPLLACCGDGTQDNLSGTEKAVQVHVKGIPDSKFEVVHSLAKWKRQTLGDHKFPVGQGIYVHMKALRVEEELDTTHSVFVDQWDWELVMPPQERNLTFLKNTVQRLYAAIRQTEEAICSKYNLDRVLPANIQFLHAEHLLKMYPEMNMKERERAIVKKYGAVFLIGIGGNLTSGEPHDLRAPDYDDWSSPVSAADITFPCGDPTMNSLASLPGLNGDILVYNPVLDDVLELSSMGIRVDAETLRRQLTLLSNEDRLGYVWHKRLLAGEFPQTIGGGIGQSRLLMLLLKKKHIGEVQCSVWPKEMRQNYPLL
The data set is described as follows: ninhydrin asparagine formation assay, Km app method. The format is biochemical.

Data set [2] concerns the target T1, TcAS-A. The data set is described as follows: ninhydrin asparagine formation assay. The format is biochemical.
Data set [3] deals with T2, TbAS-A (Trypanosoma brucei, UniProt Q57WT9).
T2 construct: gene Tb07.27M11.260; full ORF in pET28a(+), 6-His-tagged, expressed in E. coli BL21DE3, Ni purified; predicted dimer (homology model)
T2 sequence (Q57WT9 1-351): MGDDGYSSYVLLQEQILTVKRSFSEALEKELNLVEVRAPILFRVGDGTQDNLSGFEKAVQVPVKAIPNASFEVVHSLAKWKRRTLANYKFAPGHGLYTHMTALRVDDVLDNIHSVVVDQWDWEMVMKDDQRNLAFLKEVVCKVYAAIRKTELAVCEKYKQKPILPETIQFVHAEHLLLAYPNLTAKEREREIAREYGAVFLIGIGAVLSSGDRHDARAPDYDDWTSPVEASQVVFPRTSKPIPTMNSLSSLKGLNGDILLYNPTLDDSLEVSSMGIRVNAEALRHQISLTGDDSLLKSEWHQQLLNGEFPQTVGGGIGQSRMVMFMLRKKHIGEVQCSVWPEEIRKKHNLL
The data set is described as follows: ninhydrin asparagine formation assay, Km app method. The format is biochemical.

The target of data set [4] is T2, TbAS-A. As to the kind of experiment: ninhydrin asparagine formation assay. It is filed as biochemical.
Substrate in the data set “purified protein”: N
As to the kind of experiment: purified protein. The conditions noted are these: excess aspartate (>20 mM) and ATP (>10 mM), ammonia in solution as nitrogen donor, 8.4 mM Mg2+, 85 mM Tris-HCl, 37 °C.

Substrate in data set [5]: NC(=O)CC[C@H](N)C(=O)O
As to the kind of experiment: ninhydrin asparagine formation assay. It is filed as biochemical, Trypanosoma cruzi. The conditions noted are these: excess ATP and aspartate, glutamine as nitrogen donor, 8.4 mM Mg2+, 85 mM Tris-HCl, 37 °C. The text has this:
(§1) ninhydrin asparagine formation assay on TcAS-A

Substrate in data set [6]: N[C@@H](CC(=O)O)C(=O)O
As to the kind of experiment: ninhydrin asparagine formation assay. The format is biochemical, Trypanosoma cruzi. The conditions noted are these: excess ATP (>10 mM) and ammonia (>50 mM), 8.4 mM Mg2+, 85 mM Tris-HCl, 37 °C.
Excerpt: as §1

Substrate in data set [7]: Nc1ncnc2c1ncn2[C@@H]1O[C@H](COP(=O)(O)OP(=O)(O)OP(=O)(O)O)[C@@H](O)[C@H]1O
The data set is described as follows: ninhydrin asparagine formation assay. It is filed as biochemical, Trypanosoma cruzi. The following applies: excess aspartate (>20 mM) and ammonia (>50 mM), 8.4 mM Mg2+, 85 mM Tris-HCl, 37 °C.
Excerpt: as §1

Substrate in data set [8]: NC(=O)CC[C@H](N)C(=O)O
The data set is described as follows: ninhydrin asparagine formation assay. It is filed as biochemical, Trypanosoma brucei. The conditions noted are these: excess ATP and aspartate, glutamine as nitrogen donor, 8.4 mM Mg2+, 85 mM Tris-HCl, 37 °C. The text has this:
(§2) ninhydrin asparagine formation assay on TbAS-A

Substrate in data set [9]: N[C@@H](CC(=O)O)C(=O)O
As to the kind of experiment: ninhydrin asparagine formation assay. It is filed as biochemical, Trypanosoma brucei. The conditions noted are these: excess ATP (>10 mM) and ammonia (>50 mM), 8.4 mM Mg2+, 85 mM Tris-HCl, 37 °C.
Excerpt: as §2

Substrate in data set [10]: Nc1ncnc2c1ncn2[C@@H]1O[C@H](COP(=O)(O)OP(=O)(O)OP(=O)(O)O)[C@@H](O)[C@H]1O
As to the kind of experiment: ninhydrin asparagine formation assay. The format is biochemical, Trypanosoma brucei. The conditions noted are these: excess aspartate (>20 mM) and ammonia (>50 mM), 8.4 mM Mg2+, 85 mM Tris-HCl, 37 °C.
Excerpt: as §2

A word on the IC50: it is the concentration at which inhibition is half-maximal. The low end stands for inhibition by little substance, the high end for a need for much substance. For orientation: Km means the concentration of substrate that gives half-maximal velocity. The term kcat denotes the number of substrate molecules converted per active site and unit of time at saturation. The term kcat/Km denotes the turnover number divided by the Michaelis constant.

Regarding `N[C@@H](CSS(=O)(=O)O)C(=O)O` [L-cysteine-S-sulfate], the figures for the Ki at TcAS-A [1] and at TbAS-A [3] were 129 µM and 137 µM, respectively. Also, the IC50 is 100 µM against TcAS-A [2] and 126 µM at TbAS-A [4].

B1: TcAS-A (Trypanosoma cruzi strain CL Brener) (protein)
chain: MTSGDPAAFIQLQEQIVTVKQVFSSALAKELNLVEVQAPLLACCGDGTQDNLSGTEKAVQVHVKGIPDSKFEVVHSLAKWKRQTLGDHKFPVGQGIYVHMKALRVEEELDTTHSVFVDQWDWELVMPPQERNLTFLKNTVQRLYAAIRQTEEAICSKYNLDRVLPANIQFLHAEHLLKMYPEMNMKERERAIVKKYGAVFLIGIGGNLTSGEPHDLRAPDYDDWSSPVSAADITFPCGDPTMNSLASLPGLNGDILVYNPVLDDVLELSSMGIRVDAETLRRQLTLLSNEDRLGYVWHKRLLAGEFPQTIGGGIGQSRLLMLLLKKKHIGEVQCSVWPKEMRQNYPLL
notes: full ORF in pET28a(+), 6-His-tagged, expressed in E. coli BL21DE3, Ni purified; predicted dimer (homology model)
With B1, the Km stood at 7.75 ± 1.55 mM in “purified protein”, 15.33 ± 3.66 mM in data set [5], 6.45 ± 2.05 mM in [6] and 0.72 ± 0.01 mM in [7]. The kcat in “purified protein” came out at 2.45 s⁻¹; in data set [5], 3.38 ± 0.41 s⁻¹; in [6], 2.41 ± 0.32 s⁻¹; in data set [7] it was 3.45 ± 0.02 s⁻¹. The kcat/Km in the data set “purified protein” is 316 M⁻¹ s⁻¹; in data set [5], 220 M⁻¹ s⁻¹; in [6], 374 M⁻¹ s⁻¹; in data set [7] it was 4790 M⁻¹ s⁻¹.

B2: TbAS-A (Trypanosoma brucei brucei TREU927) (protein)
chain: MGDDGYSSYVLLQEQILTVKRSFSEALEKELNLVEVRAPILFRVGDGTQDNLSGFEKAVQVPVKAIPNASFEVVHSLAKWKRRTLANYKFAPGHGLYTHMTALRVDDVLDNIHSVVVDQWDWEMVMKDDQRNLAFLKEVVCKVYAAIRKTELAVCEKYKQKPILPETIQFVHAEHLLLAYPNLTAKEREREIAREYGAVFLIGIGAVLSSGDRHDARAPDYDDWTSPVEASQVVFPRTSKPIPTMNSLSSLKGLNGDILLYNPTLDDSLEVSSMGIRVNAEALRHQISLTGDDSLLKSEWHQQLLNGEFPQTVGGGIGQSRMVMFMLRKKHIGEVQCSVWPEEIRKKHNLL
notes: as for B1
Turning to B2, the Km in the data set “purified protein” is 5.55 ± 0.41 mM; in data set [8], 8.20 ± 1.70 mM; in data set [9] it was 5.39 ± 0.31 mM; in data set [10] it was 1.80 ± 0.32 mM. Moreover, the kcat in “purified protein” was found to be 5.69 s⁻¹; in data set [8], 5.58 ± 0.48 s⁻¹; in data set [9], 5.31 ± 0.11 s⁻¹; in data set [10], 6.22 ± 0.38 s⁻¹. The kcat/Km in “purified protein” stood at 1030 M⁻¹ s⁻¹; in [8], 680 M⁻¹ s⁻¹; in [9], 985 M⁻¹ s⁻¹; in data set [10], 3460 M⁻¹ s⁻¹.
